Measured values from patent publication US11198871B2, “Riboswitch-mediated regulatory control of gene expression in thermophilic bacteria” (priority 2019, dated 2021).
Where two headings read alike, the source gives them in different places.

B1: Tsac 2588 (nucleic acid, listed as Thermoanaerobacterium saccharolyticum)
DNA: ATTGTGTCAGGACAAGTAAATAATAGCTCATATAATTCTGAGAATACGGCTCAGAAGTCTCTACCAGACAACCGTAAATTGTCTGACTATGAGTGAAAGTGTACCTGAGGGTTCCAGCCTTATTGTCCATGTGTAGAAAACAGTAAAGGCGTTCGGACCGAGCGGTACAGGCATTGTATTGCCACACCTGTGGGATAAAAGCCCGGGAGGATAGGTTTCACTCTATGTGTTGGAATCTATCATTCCGGGCTTGTTTATTTTTAAAATTCGTTTTTATTT
B2: Tsac 2584 (nucleic acid, listed as Thermoanaerobacterium saccharolyticum)
DNA: B1 DNA

System: sfGFP
Format: cell-based, Geobacillus thermoglucosidasius
Settings: for fold change (reduction) of maximal normalized fluorescence: 0.25 mM guanosine versus none; for maximal normalized fluorescence: mid-exponential growth, 55° C.
Protocol: To evaluate the T.s. riboswitches' regulatory activities, a thermophilic fluorescence reporter assay was used that included the use of super-folder green fluorescence protein (sfGFP) which is active in the aerobic thermophile, Geobacillus thermoglucosidasius (G.t.), at a growth temperature of 55° C. Both purine riboswitches from T.s. were inserted downstream of the pRp1S strong promoter respectively in plasmid pG1AK-sf such that the riboswitch controlled the expression of sfGFP once it was introduced into G.t. (see FIG. 2a and Table 1).
To trigger the regulatory response from the riboswitches, guanosine was used as the ligand as cells can import the compound and convert it into guanine enzymatically. […] As an additional control, a point mutation was introduced in the Tsac 2584 aptamer domain at position 74 (C74U). Position 74 is responsible for its interaction with guanine.
In an embodiment, and as depicted in FIG. 8, the normalized fluorescence of the cell culture is defined as: […]
To compare the normalized fluorescence between cultures growing with different ligand concentrations, the normalized fluorescence for each culture was averaged between the mid-log points where the OD was between 0.4 and 0.6.
G. thermoglucosidasius strains transformed with different plasmids were grown aerobically overnight in 5 ml TGP media (supplemental) with 12.5 μg/mL kanamycin at 55° C. and shaken at 200 rpm. The freshly grown overnight culture was used to inoculate 5 mL of fresh TGP media with kanamycin and incubated in the same condition for about 5 hrs when the cultures reached OD600 of about 1.0. This secondary growth culture was used to inoculate 5 ml of Defined Glucose Media (DG) with 250-fold dilution and was sub-aliquoted into a 96-well plate with 200 microliters per well where different concentrations of the effector ligand was added. The plate was incubated in a Greiner-Bio xxx plate reader and the OD600 and the fluorescence intensity (details of excitation and emission) was tracked for 24 hrs. To quantify the normalized fluorescence, the value of the raw fluorescence was taken when the cells were in mid-exponential phase (OD600 0.4-0.6) and divided by the optical density to normalize the fluorescence.

| Molecule | fold change (reduction) of maximal normalized fluorescence | maximal normalized fluorescence (0.25 mM guanosine) | fluorescence in comparison to the control pG1AK parental plasmid (with guanosine) | maximal normalized fluorescence (without guanosine) | guanosine-dependent repression of sfGFP (guanosine added, result in words) |
| --- | --- | --- | --- | --- | --- |
| B1 | ~2.5 fold | 15±0.1 fluorescence units | about 30% | 38±1 fluorescence units | – |
| B2 | ~7 fold | 2.8±0.1 fluorescence units | – | 20±2 fluorescence units | tight repression |
